Reference: patent US20190360025A1

Key:
[1] = target: tumor necrosis factor alpha (TNF-α), R&D Systems 210-TA-005 (UniProt P01375); test: t-PLA, buffer; TNF-α 1.00E-09 M
[2] = target: tumor necrosis factor alpha (TNF-α), R&D Systems 210-TA-005 (UniProt P01375); test: c-PLA 10X probes, buffer; TNF-α 5.00E-07 M
[3] = target: tumor necrosis factor alpha (TNF-α), R&D Systems 210-TA-005 (UniProt P01375); test: c-PLA 1X probes, human plasma; TNF-α 1.00E-12 M
[4] = target: tumor necrosis factor alpha (TNF-α), R&D Systems 210-TA-005 (UniProt P01375); test: t-PLA 10X probes, buffer; TNF-α 1.00E-11 M
[5] = target: tumor necrosis factor alpha (TNF-α), R&D Systems 210-TA-005 (UniProt P01375); test: c-PLA 1X probes, human plasma; TNF-α 5.00E-07 M
[6] = target: tumor necrosis factor alpha (TNF-α), R&D Systems 210-TA-005 (UniProt P01375); test: t-PLA 10X probes, human plasma; TNF-α 1.00E-10 M
[7] = target: tumor necrosis factor alpha (TNF-α), R&D Systems 210-TA-005 (UniProt P01375); test: t-PLA 10X probes, human plasma; TNF-α 5.00E-07 M
[8] = target: tumor necrosis factor alpha (TNF-α), R&D Systems 210-TA-005 (UniProt P01375); test: SPR (Biacore T200), 1:1 global fit
[9] = target: tumor necrosis factor alpha (TNF-α), R&D Systems 210-TA-005 (UniProt P01375); test: c-PLA 10X probes, buffer; TNF-α 1.00E-11 M
[10] = target: tumor necrosis factor alpha (TNF-α), R&D Systems 210-TA-005 (UniProt P01375); test: t-PLA 1X probes, buffer; TNF-α 1.00E-09 M
[11] = target: tumor necrosis factor alpha (TNF-α), R&D Systems 210-TA-005 (UniProt P01375); test: t-PLA, buffer; TNF-α 1.00E-08 M
[12] = target: tumor necrosis factor alpha (TNF-α), R&D Systems 210-TA-005 (UniProt P01375); test: c-PLA 1X probes, buffer; TNF-α 1.00E-11 M
[13] = target: tumor necrosis factor alpha (TNF-α), R&D Systems 210-TA-005 (UniProt P01375); test: c-PLA 1X probes, buffer; TNF-α 1.00E-08 M
[14] = target: tumor necrosis factor alpha (TNF-α), R&D Systems 210-TA-005 (UniProt P01375); test: t-PLA 1X probes, human plasma; TNF-α 5.00E-07 M
[15] = target: tumor necrosis factor alpha (TNF-α), R&D Systems 210-TA-005 (UniProt P01375); test: c-PLA, buffer; TNF-α 1.00E-10 M
[16] = target: tumor necrosis factor alpha (TNF-α), R&D Systems 210-TA-005 (UniProt P01375); test: t-PLA 1X probes, human plasma; TNF-α 1.00E-08 M
[17] = target: vascular endothelial growth factor (VEGF), R&D Systems 293-VE-010 (human) (UniProt P15692); test: c-PLA, human plasma; VEGF 1.00E-12 M
[18] = target: vascular endothelial growth factor (VEGF), R&D Systems 293-VE-010 (human) (UniProt P15692); test: c-PLA, chicken plasma; VEGF 1.00E-14 M
[19] = target: vascular endothelial growth factor (VEGF), R&D Systems 293-VE-010 (human) (UniProt P15692); test: c-PLA, chicken plasma; VEGF 1.00E-08 M
[20] = target: vascular endothelial growth factor (VEGF), R&D Systems 293-VE-010 (human) (UniProt P15692); test: c-PLA with preamplification; VEGF 1.00E-14 M
[21] = target: vascular endothelial growth factor (VEGF), R&D Systems 293-VE-010 (human) (UniProt P15692); test: SPR (Biacore T200), 1:1 global fit
[22] = target: vascular endothelial growth factor (VEGF), R&D Systems 293-VE-010 (human) (UniProt P15692); test: c-PLA, chicken plasma; VEGF 1.00E-11 M
[23] = target: vascular endothelial growth factor (VEGF), R&D Systems 293-VE-010 (human) (UniProt P15692); test: t-PLA, human plasma; VEGF 1.00E-09 M
[24] = target: vascular endothelial growth factor (VEGF), R&D Systems 293-VE-010 (human) (UniProt P15692); test: c-PLA, chicken plasma; VEGF 1.00E-13 M
[25] = target: vascular endothelial growth factor (VEGF), R&D Systems 293-VE-010 (human) (UniProt P15692); test: t-PLA with preamplification; VEGF 1.00E-13 M
[26] = target: vascular endothelial growth factor (VEGF), R&D Systems 293-VE-010 (human) (UniProt P15692); test: c-PLA, buffer; VEGF 1.00E-14 M
[27] = target: vascular endothelial growth factor (VEGF), R&D Systems 293-VE-010 (human) (UniProt P15692); test: c-PLA, human plasma; VEGF 1.00E-11 M
[28] = target: vascular endothelial growth factor (VEGF), R&D Systems 293-VE-010 (human) (UniProt P15692); test: t-PLA with preamplification; VEGF 1.00E-12 M

UniProt P15692, sequence (P15692 other isoform, or with tags, fused parts or gaps limits assumed): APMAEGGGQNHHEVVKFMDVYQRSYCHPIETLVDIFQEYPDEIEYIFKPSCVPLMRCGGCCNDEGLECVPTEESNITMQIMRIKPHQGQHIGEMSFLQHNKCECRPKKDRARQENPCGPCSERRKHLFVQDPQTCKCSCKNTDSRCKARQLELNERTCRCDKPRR
UniProt P01375, sequence (P01375 77-233 limits assumed): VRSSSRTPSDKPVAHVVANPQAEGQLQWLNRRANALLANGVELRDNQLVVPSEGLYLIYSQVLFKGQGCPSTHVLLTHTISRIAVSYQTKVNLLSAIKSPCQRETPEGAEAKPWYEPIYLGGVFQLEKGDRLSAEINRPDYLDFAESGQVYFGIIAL

## affinity-purified polyclonal anti-TNF-α antibody (R&D Systems AF-210-NA)
[1]
  Counts: 1.98e+07
  SBR: 116
[2]
  Counts: 650000
  SBR: 3550
[3]
  Counts: 75.9
[4]
  Counts: 7.03e+06
  SBR: 1.2
[5]
  Counts: 28800
  SBR: 383
[6]
  Counts: 1.44e+07
  SBR: 1.3
[7]
  Counts: 2.25e+09
  SBR: 198
[8]
  Kd: 279 pM
[9]
  Counts: 590
[10]
  Counts: 1.98e+07
[11]
  Counts: 5.4e+07
  SBR: 317
[12]
  Counts: 22.1
  SBR: 1.4
[13]
  Counts: 11600
  SBR: 730
[14]
  Counts: 2.12e+08
  SBR: 892
[15]
  Counts: 260
[16]
  Counts: 1.79e+07
  SBR: 75

## affinity-purified polyclonal anti-VEGF antibody (R&D Systems AF-293-NA)
[17]
  Counts: 408
  SBR: 1.6
[18]
  Counts: 10.7
  SBR: 1.2
[19]
  Counts: 40800
  SBR: 4420
[20]
  Counts: 90200
  SBR: 1.5
[21]
  Kd: 3.6 pM
[22]
  Counts: 2160
  SBR: 234
[23]
  Counts: 1.4e+08
  SBR: 86
[24]
  Counts: 29
  SBR: 3.1
[25]
  Counts: 577000
  SBR: 3.3
[26]
  Counts: 203
  SBR: 6.8
[27]
  Counts: 1770
  SBR: 6.8
[28]
  Counts: 1.26e+06
  SBR: 7.1
